# Assay results: PMC5775292, “Comprehensive reduction of amino acid set in a protein suggests the importance of prebiotic amino acids for stable proteins” (Scientific Reports, 2018)
# Biological target: the molecule itself
# Assay: SEC; analytical gel filtration, Superdex 200 (1.0 x 30 cm), 20 mM potassium phosphate pH 6.0, 150 mM KCl, 1 mM EDTA; initial protein concentration 20 uM, 0.2 ml loaded, 0.5 ml/min; apparent molar mass from a calibration curve
protein,measurement,value
"Bacillus subtilis nucleoside diphosphate kinase (enzyme, UniProt P31103 1-149, looked up, nucleoside diphosphate kinase, Bacillus subtilis; construct not described; also called B. subtilis NDK; extant mesophilic NDK) MMEKTFIMVKPDGVQRQLIGDILSRFERKGLQLAGAKLMRVTEQMAEKHYAEHQGKPFFGELVEFITSGPVFAMVWEGENVIEVTRQLIGKTNPKEALPGTIRGDYGMFVGKNIIHGSDSLESAEREINIFFKNEELVSYQQLMAGWIY",stoichiometry N,6
